Laboratory results published in the nanobody polyreactivity screen of Harvey et al. (2022).

Experiment: yeast display, Sf9 membrane polyspecificity reagent, FACS + sequencing; frameworks hold sequencing errors
Summary of the method: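 Polyreactivity labels are assigned by the sorting gate from which each nanobody was recovered. The gates were low and high (top ~1%), set on anti-HA fluorescence for expression and streptavidin fluorescence for reagent binding. Before sorting, galactose-induced (36–48 hours) yeast display cells were stained for 1 hour at 4 °C with 10% biotinylated, detergent-solubilized Sf9 membrane reagent.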

Sequence	polyreactivity (PSR sort gate)
QVQLVESGGGLVQAGGSHRLSCAASGRTFSYNAMGWYRQAPGKERELVASITSSGGGTSYADSVKGRFTISRDNAKNTVYLQMNSLKPEDTAVYYCNRVLPHPDGYGVGARGYWGQGTQVTVSS	high polyreactivity
QVQLVESGGGLVQAGGSLRLRCAASGIIFGTNAMGWYRQAPGKERELVAGITSSGDSTYYADSVKGRFTISRDNAKNTVYLQMNSLKAEDTAVYYCARDIRTREFDSWGQGTQVTVSS	low polyreactivity
QFQLVDSVRGLVQAGVSLRLSCAASGRIFVKYVIGSYRQAPGTESQLVAANRSYGGSPYYADSVKGRFTISRDNAKNTVYLQMNSLKPEDTAVYYCAKRLHYSAPRYTEYDEWGHGTQVTVSS	high polyreactivity
QVQHVESGGGLVQAGGSLRLSCAASGSIFRYYVMGWYSQAPGKERELGAAISSGGRTYYADSVKGRFTISRDNAKNTVYLQMNSLKPEDTAVYYCNAQGLFYWEMDYWGQGTQVTVSS	high polyreactivity
QVQLVESGGGLVQAGGSLRLSCAASGSTFYENTMGWYRQAPGKERELVAAISVRGGSTYYADSVKGRFTISRDNEKKTVYLQMNRLKPEDTAVYYCAVLDVYRYRMDYSGQGTQVTVSS	low polyreactivity
QVQLQESGGGLVQAGGSPRLSCAASDNIFPDSVRCWYRQAPGKERELVATIGFGATTNYADSVKGRFTISRDNAKNTVYLQMNSLKPEDTAVYYCAADPLNYEYFCYWGQGTQVTVSS	low polyreactivity
QVQLVESGGGLVQAGGSLRLSCAPSGSIFRVYAMGWYRQAPGKERELVAAITIGTSTNYADSVKGRFTISRDNAKNTVYLQMNSLKPEDTAVYYCAAEWSYNLDSIASSPTSYDYWGQGTQVTVSS	low polyreactivity
QDQLVDSGGGLVQAGGSLRLSCAASGRSFRNNPMGWYRQAPGKERELVAAITSSGASTYYADSVKGRFTISRDNAKNTVYLQMNSLKPEDTAVYSCAAATVRQFRSSLDYWGQGTQVTVSS	high polyreactivity
QVQLVESGGGLVQAGGSLRLSSAASGSTFGSYTMGWYRQAPGKERELVAAINWSGGNTYYADSVKGRFTISRDNAKNTVYLQMNSLKPEDPAVYYCAAAFYIYGVEGDYWGQGTQVTVSS	low polyreactivity
QVQLVESGGGLVQAGGSLRLSCAASGSTFLTNTMGWYRQAPGKERELVAIISRSSGTTYYSDSVKGRFTISRDNAKNTVYLQMNSLKPEDTAVYYCAKRYRRASPYSKNVYWGQGTQVTVSS	high polyreactivity
QVQLVESGGGLVQAGGRLRLSCAASGRTFEGYAMAWYRQAPGKERELVAAISGSSGSTYYADSVKGRFTISRDNAKNTVYLQMNSLKPEDTAVYYCNADYDWPGGSDYWGQGTQVTVSS	low polyreactivity
QVQLVESGGRLVQAGGSLRLSCAASGRIFRVYAMGWYRQAPGKERELVAAISSRGGRTYYADSVKGRFTISRDNAKNTVYLQMNSLKPEDTAVYFCAADGRSSSRTTSRYDYWGQGTQVTVSS	high polyreactivity
QVQLVESGGGLVQAGGSLRLSCAASGSIFFYYTMGWYRQAPGKEREFVAAISGSGGSTYYADSVKGRFTISRDNAKNTVYLQMNSLKPEDTAVYYCAAGLRLDLGAMYYWGQVTQVTVSS	low polyreactivity
QVQLVESGGGLVQAGGSLRLSCSASGSIFSNAMGWYRQAPGKERELVAAITGRGGRTYYADSVKGRFTITRDNAKNSVYLQMNSLKPEDTAVYYCARDSPWSSRYRYRAFDYWGQGTQVTVSS	high polyreactivity
QVQLQDSGGGLVQAGGSLRQSYAASGYIFPSLAMGWYRQAPGKEREFVAAIGRGSTNNYADSVKGRFTISRDNAKNTAYQQMNSLKPEDTAVYYCAAAASPLTRHLYWGQGTQVTVSS	low polyreactivity
QVQLQESGGGLVQAGGSLRLSCAASGTISTDSYMGWYRQAPGKESKFVATIGYGGITYYADSVKGRSTISRDSAKNTVYLQMNILKPEDTAVYYCAVNSYYPDHYWYWGRGTQVTVSS	high polyreactivity
QVQLVESGGGFVQAGGSLRLSCAASGLTFYGYAMGWYRQEPGKERELVAAISGSGARTYYADSVKGRFTISRDNAKNTVYFQMNSLKPEDTAVYYCAVRGSWYSEHNYWGQGTQVTVSS	high polyreactivity
QVQLVESGGGIVQAGGSLRLSCAASGFIFGSYAMGWYRQAPGKERELVAAINSVDRTYYADSVKGRFTISRDNAKNTVYLQMNSLKPEDTAVYYCAATIAPTPGYIIYDYWGQGTQVTVSS	high polyreactivity
QVQRVESGGGLVQAGGSLRLTSAGSGLTFILNAMGWYRQAPGKEREFVAAISRSGVRTYYADSVKGRFTISRDNAKNTVYLQMNSLKPEDTAVYYCAAAAQRGSKPRVELDYWGQGSQVTVSS	high polyreactivity
QVQLVESGGGLVQAGGSLRLSCAASGSIFFYYAMGWYRQAPGKERELVAAIDFNGGNTYYADSVKGRFTISRDNAKNTVYLQMNSLKPEDTAVYYCAAEWEGTYTTVPDEFNYWGQGTQVTVSS	high polyreactivity
QVQLVESGGGLVQAGGSLRLSCAASGSIFTANAMGWYRQAPGKERELVAAISRSGGRTYYADSVKGRFTISRDNAKNTVYLQMNSLKPEDTAVYYCNVGRFNTSGYDYWGQGTQVTVSS	high polyreactivity

Sequence	polyreactivity (PSR sort gate)
QVQLVESGGGLVQAGGSLRLSCAPSGSIFPDYAMGWYRHAPGKQRELVAAIRSGSRTYYADSVKGRFTISRDNAKITVYLQMNSLNPEDTAVYYCATTYGTPRYDYWGQGTQVTVSS	high polyreactivity
QVQLVESGGGLVQAGGSLRLICAASGSTYRGYAMGWYRQAPGKERELVAAISYISGGTYYADSVKGRFTISRDNAKYTVYLQMNSLKPEDTAVYYCAVGSHSRSSNSYYYWGQGTQVTVSW	low polyreactivity
QVQLVESGGGLVQAGGRLRLSCAASGLNFYLYAMGWYTQAPGKERELVATITSAGRTNSADTVKGRFTISRDNAKNTVYLERNSLKPEYTAVYYCIRDVRFVGPSGFDYWGQGTEVTVSS	high polyreactivity
QVQLVESGGRLVQAGASLRLSCDASGRIFQWYAIGWYRQAPGKVRELVAAITSGSSTYYADSVKGRFTISRDNAKNSVYLQMNSLKPEDTAVYYCAAEAVYVSSWYDDYYYFRYDYWGQGTQVTVSS	high polyreactivity
QVQLVESGGGLVQAGGSLRLSCAASGIIFYEYAMGWYRQAPGKERELVATITSGGSTNYADSVKGRFTISRDNAKNTVYLQMNSLKPEDTAVYYCNADWWWGYGYWGQGTQVTVSS	low polyreactivity
QVQLVESGGGLVQAGGSLRLSCAASGYNFGVYAMGWYRQAPRKERELVARITSGGSTNYADSVKGRFTISRDNAKITVYLQMNSLKPEDTAVYYCAAAVGNTDREYDYWGQGTQVTVSS	low polyreactivity
QVQHVESGGGLVQAGGRLRLSCPATGSTFTWYALASYRQAPGKERELVAAISRGGSTNYADSVKGRFTISRDNAKNSVYLQMNSLIPEDTAVYYCAAESYWRDVYWGQGTQVTVSS	low polyreactivity
QVQLVESGGGLVQAGGSLRLSCAASGITFINYDMGWYRQAPGKERELVAAISQIGTSTYYADSVKGRCTISRDNAKNTVYLQMNSLKPEDTAVYYCNARYISTGFRYNYWGQGTQVTVSS	high polyreactivity
QVQLVESGGGLVQPGGSLRLSCSASGSIFRVYGMGWYRQAPGKERELVAAITWSGGSTYYADSVKGRFSISRDKAKNTVYLQQNSLKPEDTAVYYCAARARPRYYRPPYDYWGQGTQVTVSS	high polyreactivity
QVQLVESGGGLVQAGGSLRLSCAASGRTFYVNAMGWYRQAPGKERELVATITDRGGRTYYADSVKGRFTISRDNAKNTVYLQMNSLKPEDTAVYYCAATRWYEVDYWGQGTQVTVSS	low polyreactivity
QVQLVESGGGLVQAGGSLRLSCAASGLIFISYAMGWYRQAPGKERELVAAITSTVGGTYYADSVKGRFTISRDNAKNTVYLQMNSLQPEDTAVYYCAKEVWTWGPYYYWGQGTQVTVSS	low polyreactivity
QVQLVESGGGLVQAGGSHRLSCAASGRIFVKYAMGWYRQAPGKERELVAAITKSGSSTYYADSVKGRFTISRDNAKITVYLQMNSLKPEDTAVYYCAALTISRSRTGYYWGQGTQVTVSS	low polyreactivity
QVQLVESGGGLVQAGGSLRLSCAASGRTLRGYAMGWYRQAPGKERELVARITGSGGSTYADSVKGRFTISRDNAKNTVYLQMNSLKPEDTAVYYCAAGYSIYYYYAYTISRVSYDYWGQGTQVTVSS	high polyreactivity
QVHLVESGGGLVQAGGRLRLSCAASGFTYYRYTMGWYRQAPGKERELVAAISWNGGRTYYADSVKGRFTISRDNAKNTVYLQMNSLKPEDTAVYYCAAVQHYTNRYPAVDYWGQGTQVTVSS	high polyreactivity
QVQLVESGGGLVQAGGSLRLSCYASGRTFAGYVMGWYRQAHGKERELVAAINASGGSTYYADSVKGRFTISRDNAKNTVYLQMNSLKPEDTAVYYCAAARLGSDITRRYYYWGQGTQVTVSS	high polyreactivity
QVQLVESGGGLVQAGGSLRLICAASGLTFHPYAMGWYRPAPGKERELVAAISSRGTSTYYADSVKGRFTISRDNAQNTVYLQMNCLKPEDTAVYYFAARHGPRAEAMYYWGQGTQVTVSS	high polyreactivity
QVQLVESGGGLVQAGGSLRLSCAASGSTFATNAMGWYRQAPGKERELVAAIRRGGGTYYADSVKGRFTISRDNAKNTVYLQMNSLKPEDTAVYYCAALYGGRRPYEYWGQGTQVTVSS	high polyreactivity
QVQLVESGGGLVQAGGSLRLSCAASGRIFVHNAMGWSRQAPGKERELVAAISSGGSTYYADSVKGRFTISRDNAKNTVYLQMNSLKPEDTAVYYCAIYAYYNKYDYWGQGTQVTVSS	high polyreactivity
QVQHVESGGGLVQAGGSLRLSCAASGSTFTDYTMGWYRQAPGIESELVARIRSRGARTYYADSVKGRFTISRDNAKNTVYLQMNSLKPEDTAVYYCNKRWGAHRASPAYDYWGQGTQVTVSS	high polyreactivity
QVQLVESGGGLVQAGGSLRLSCAASGSIFYPYAMGWYRQAPGKERELVAAISSGGRTYYADSVKGRFTISRDNAKNTVYLQMNSLKPEDTAVFYCAARPKAYGRPPGYYWGQGTQVTVSS	high polyreactivity
